The DeepSol protein solubility set

Assay: soluble on expression in E. coli; label from the status in PepcDB or PDB records

Row | Sequence | soluble on expression in E. coli
1 | MDEDIICVGCGAILQSDDPKKAGYLPKSALDKAKREENTDVYCQRCFRLRHYNEIMPVDLNNDDFLALLNSLSEKKALVVNVVDLFDFSNSLLSSLKRFVGNNDFILVGNKFDLFPKNSKQSKIKDWMRQEANRMGLYPKDIFLVSAKKKVNLESLISYINDHSQDKDVYFVGTTNVGKSTLINAIIDMMGDIQDLITTSRFPGTTLDQIEIPLENGHFLIDTPGIMTDNQLATHLNAKDLELVSPKKPLKPATYQLLPGNTLFLAGLGRIDFLKGESTSFTVYVARDMYVHRTKTANADAFYEKHKGELLTPPSADDQMAPLKGKEFRTDYKSDLLFGGIGFVTVPKGCVVKTYTPDGIGLGIRRALILEHHHHHH | soluble
2 | MGSDKIHHHHHHMDSLGEQPSNRAPVITISSGRYLAQIATYGGGIKSLTYDGRPLVETYPDDAFPPLNAGVVLAPWPNRTDAGAYDFQGQSYQLPITEPDRNNAIHGFVANAVWNIDLIRPARVILSTTIEPQQGWPWAIELAADYLLTDSGLRAQFTATTPHEAVPFGFGWHTYLSAQGAEVDKTTLRVGVDKQWMLDDRNLPTGELVQPTNDVSGGLPMAGKLLDDCFLAERTPVTTVLESQGVGVSMHCSEQFPWFQIFTPDPAWEMPYPGRGRSVAVEPMTTSPNGLNLGIDTIGAASPWHGTITISAYNKHS | not soluble
3 | MADPLSKEEDIQHRPDSPPLGLLDPSRIQNPLANDQLHQVPQQQNPSGFVMPEQPRQQPPPQTWQRTPTMSPANIFQGGSGTPGSQRSSTGTPNHQMGNPPQHQQQQFFHGESPAHSQGTPMTPQSAGMPGSNCGTPQSAGGPPTSVPYDYQQAQMQQQQHAQAMAAAAAAQQQQQQHLQQQQYAQNPQQMHDSPYRQHQMMQMHQHPGHPSQYPPGYPQQQAAQWQQQMYARQAAAQAQAQAQAQAQAQAQQRAAAQRVPVPYPPGAYPPGMPGPMTPGYPAQAPAAPRTTPGSAGPGTGPPGTPQRPQYPQGTNPQPQQAQFTYPPTQQMTPTGQPPGYPGMPGTPTFSSPAHQMFRQGQPTAPPGMRQYISPQAGQQQPTPGTPHRFAPPGPSGTTSSPHFAPGAPGADLRSPSLMSPNQQSQQHTPVLPRSLHNEMTSHGMRPIALPSQPLPQTQGTPQPILSASSLPPQSAGATQFVYRPQQPNQMNTMNQMNQMHHDVNPFPIQMNVDPELYLTGIHFHCFDSEKLFEDKLDRKNLEFMIKYHGGDIEFEASKFHERIHQITHVLVDSCRNTNVMTSLEHRKRIVSIQWIIDVMERERVELPWRIAHLPPPFNENFRPYLGKLFSLSGFDSSERAAISFMAEMMGAKITPFLARQNDLLIAKQPADKVTRAQEWKVPVVNFQWIADAYVCDEASPQKRPNVENPRYQLENPVMTNVNTSPNHIEGASQEFGAMMSCWKSQTIIADQAYEKARQNRKTLQNNTFFFPSKRLSDQAVAPTEDEIKSSRARLDEIKTHWEEHQEKMKDTPLSKEFYRVREPQARVSAWFGEGIDDEALTILKKKLEFLGGECVEKIRDATHVILISGRRSLVLLESIIRGKNIMDPEWIVDSYKQKMWLDTLDYFLHDKELEKEFAYNCKRSVLRARNKPVFEDIEFHVTRFVEPNQNDLVRLIELGGGNVHSEKPDPKYLAKCVETEQPFIIISCENDARFLSYLAGSKLPIYNVDLVLFAMLRQQIEPLPQYRIPIPIVVKTPVFRQPPPYTAPPKDQEPAASLASEPTRAADVLSENS | not soluble
4 | MGSDKIHHHHHHMLLEIRHVTQYHYERPVRESLMELWMQPQKTARQRLVSFELDLNPAAQVFSYADSFGNAVYHFDVPQPHDNLTIIARSAVETESPGERPDQLDMGEWDRLRSEFVRGECFDFLRPHGFVRTTEALQTFINEHDLDALKRRDPLTAVRSLSETIYGAFEYQPGVTDADSPIDLTLSAGRGVCQDFAHIMLAVCRGWGVPARYVSGYLFTDRDAGDRSDPDATHAWVEVFLPSLRWVGFDPTNNMMAGERHVAVAVGRDYADVTPSRGVYKGDAESQLAVGVSVRRARAALAEPEFLRMARPSFAGGRRRHDTALREELHQQQQQQQ | not soluble
5 | AAMKVYDVTAPIYEGMPVYKNKPEKQPKRTTITNGYVTESRIDMDVHTGTHIDAPLHMVEGGATFETIPLNDLVGPCKLFDLTHVNDRITKDDIAHLDIQEGDFVLFKTKNSFEDAFHFEFIFVAEDAARYLADKQIRGVGIDALGIERAQEGHPTHKTLFSAGVIIIEGLRLKDVPEGRYFMVAAPLKLVGTDAAPARVLLFDREP | soluble
6 | MSLLCLFAVFAFSCNEEMERLLTDDYPESGTEYTTGHVLMVVIDGASGIAVNEAYNTRKAPVIRSMTDKSLFTFYGLADNEEGVSKERGWANLLTGTTKNGLDVNQGIDELETPSFLQRLKEADENLKVSFYSSDTEFFGAFGSVANTKRKTSADSETADALIAEINGETISDIVVAQFGGVQQTGEQYGFWSNETTPTSEVIDAIYNVDAFIGKIMKALEARSRYVQENWLVVITSSYGGVYEGNVTPASEGHHHHHH | soluble
7 | MKKIIALMLFLTFFAHANDSEPGSQYLKAAEAGDRRAQYFLADSWFSSGDLSKAEYWAQKAADSGDADACALLAQIKITNPVSLDYPQAKVLAEKAAQAGSKEGEVTLAHILVNTQAGKPDYPKAISLLENASEDLENDSAVDAQMLLGLIYANGVGIKADDDKATWYFKRSSAISRTGYSEYWAGMMFLNGEEGFIEKNKQKALHWLNLSCMEGFDTGCEEFEKLTNGLEHHHHHH | not soluble
8 | SLPAPTQLFFPLIRNCELSRIYGTACYCHHKHLCCSSSYIPQSRLRYTPHPAYATFCRPKENWWQYTQGRRYASTPQKFYLTPPQVNSILKANEYSFKVPEFDGKNVSSILGFDSNQLPANAPIEDRRSAATCLQTRGMLLGVFDGHAGCACSQAVSERLFYYIAVSLLPHETLLEIENAVESGRALLPILQWHKHPNDYFSKEASKLYFNSLRTYWQELIDLNTGESTDIDVKEALINAFKRLDNDISLEAQVGDPNSFLNYLVLRVAFSGATACVAHVDGVDLHVANTGDSRAMLGVQEEDGSWSAVTLSNDHNAQNERELERLKLEHPKSEAKSVVKQDRLLGLLMPFRAFGDVKFKWSIDLQKRVIESGPDQLNDNEYTKFIPPNYHTPPYLTAEPEVTYHRLRPQDKFLVLATDGLWETMHRQDVVRIVGEYLTGMHHQQPIAVGGYKVTLGQMHGLLTERRTKMSSVFEDQNAATHLIRHAVGNNEFGTVDHERLSKMLSLPEELARMYRDDITIIVVQFNSHVVGAYQNQE | not soluble
9 | MPTPEKRLRLMQLASNSLPVGGYSWSQGLEWAVEAGWVEDSAAFEHWQQLQMEQSFFAVDLPLLARLYRACEAGDPDSAGRWTAYLLACRETRELRDEERNRGAAFTRLLVDWQPDCPAEWRKLCQQSQLTGMAWLGVRWQISVSDLALSLGYSWIESAVMAGVRLVPYGQLAAQQLIMRLCARYAANMDSALATPDHAIGSATPLASIASARHETQYSRLFRS | not soluble
10 | MADNYVIWFENLRMTDVERVGGKNASLGEMISQLTEKGVRVPGGFATTAEAYRAFLAHNGLSERISAALAKLDVEDVAELARVGKEIRQWILDTPFPEQLDAEIEAAWNKMVADAGGADISVAVRSSATAEDLPDASFAGQQETFLNINGLDNVKEAMHHVFASLYNDRAISYRVHKGFEHDIVALSAGVQRMVRSDSGASGVMFTLDTESGYDQVVFVTSSYGLGENVVQGAVNPDEFYVFKPTLKAGKPAILRKTMGSKHIKMIFTDKAEAGKSVTNVDVPEEDRNRFSITDEEITELAHYALTIEKHYGRPMDIEWGRDGLDGKLYILQARPETVKSQEEGNRNLRRFAINGDKTVLCEGRAIGQKVGQGKVRLIKDASEMDSVEAGDVLVTDMTDPDWEPVMKRASAIVTNRGGRTCHAAIIARELGIPAVVGCGNATELLKNGQEVTVSCAEGDTGFIYAGLLDVQITDVALDNMPKAPVKVMMNVGNPELAFSFANLPSEGIGLARMEFIINRQIGIHPKALLEFDKQDDELKAEITRRIAGYASPVDFYVDKIAEGVATLAASVYPRKTIVRMSDFKSNEYANLVGGNVYEPHEENPMLGFRGAARYVADNFKDCFALECKALKRVRDEMGLTNVEIMIPFVRTLGEAEAVVKALKENGLERGKNGLRLIMMCELPSNAVLAEQFLQYFDGFSIGSNDMTQLTLGLDRDSGLVSESFDERNPAVKVMLHLAISACRKQNKYVGICGQGPSDHPDFAKWLVEEGIESVSLNPDTVIETWLYLANELNK | soluble
